Source: the supplement of paper PMC9732359
± gives the uncertainty stated by the source.

Assay: protein stability index of a GFP-peptide fusion (yeast GPS) (PSI 1-4); higher = more stable; sorted into four equal gates, so the index is relative within each strain
Summary of the method: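 Plasmids in a pooled yeast library fused tiled 17-residue yeast protein peptides downstream of GFP and also expressed Cherry. Mid-log cultures grown without leucine were sorted into four equal gates by GFP/Cherry fluorescence ratio. Each gate's plasmids were PCR-amplified and Illumina-sequenced, and reads were matched to strains by barcodes. The protein stability index is derived by multiplying each gate's read frequency by its gate number and summing the results.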

Sequence | protein stability index (doa10∆) | protein stability index (pdr5∆) | protein stability index (san1∆) | protein stability index (ubr1∆)
KIGDLGLARKFHNMLQT [SSN3] | 2.9 ± 0.085 | 3.14 ± 0.1 | 3.23 ± 0.058 | 3.37 ± 0.045
KIIEDLRQKHEFLEDFD [SMC2] | 2.96 ± 0.097 | 2.54 ± 0.077 | 2.6 ± 0.087 | 2.94 ± 0.17
KIKDNKEKIKNNRQLPY [RPT5] | 3.23 ± 0.12 | 3.24 ± 0.16 | 3.18 ± 0.1 | 2.86 ± 0.1
KIKHGSVTEIPLKLSGE [YMR129W/POM152] | 2.77 ± 0.07 | 2.93 ± 0.057 | 2.58 ± 0.072 | 2.97 ± 0.086
KILSILNRSHFATTKAE [ECM29] | 2.68 ± 0.076 | 2.33 ± 0.048 | 2.4 ± 0.047 | 2.19 ± 0.037
KIRRHPNIMLIFGSGFG [FAS1] | 1.9 ± 0.057 | 2.07 ± 0.061 | 1.68 ± 0.13 | 1.39 ± 0.054
KISLLRPSFQNNRISNA [SWP82] | 2.46 ± 0.042 | 2.37 ± 0.046 | 2.23 ± 0.078 | 2.27 ± 0.041
KITDKEDLLHYIEEKHP [POP4] | 3.48 ± 0.1 | 3.3 ± 0.064 | 3.23 ± 0.057 | 3.24 ± 0.076
KKAAEEAGVTDVKVSIS [FAS2] | 1.44 ± 0.09 | 1.66 ± 0.08 | 2.23 ± 0.24 | 1.18 ± 0.1
KKCPFTGLVSIRGKILT [RPS11A] | 1.7 ± 0.058 | 1.53 ± 0.06 | 1.47 ± 0.12 | 1.88 ± 0.055
KKECALLISYGVSIENE [SRB4] | 1.75 ± 0.085 | 1.9 ± 0.16 | 1.96 ± 0.24 | 2.03 ± 0.16
KKEYIELDILNKGWKLQ [SRB4] | 2.29 ± 0.13 | 3.38 ± 0.17 | 2.76 ± 0.089 | 2.94 ± 0.16
KKGVRVTLDITTLTIMR [RPT4] | 2.48 ± 0.093 | 2.08 ± 0.11 | 2.23 ± 0.079 | 2.56 ± 0.082
KKINRRNETSVDEEDEN [YCG1] | 3.41 ± 0.1 | 3.38 ± 0.098 | 2.79 ± 0.14 | 3.31 ± 0.12
KKKGLDENTSGKISKPR [PRP28] | 3.5 ± 0.091 | 3.23 ± 0.14 | 3.52 ± 0.065 | 3.45 ± 0.099
KKLDYVLALKVEDFLER [RPS9A] | 1.76 ± 0.092 | 2.73 ± 0.079 | 2.08 ± 0.067 | 2.72 ± 0.072
KKLNKNKKLIKKLSKKY [RPL1A] | 3.78 ± 0.21 | 3.43 ± 0.11 | 3.1 ± 0.12 | 3.52 ± 0.22
KKNIQKAKSNQTQREKA [IRR1] | 2.59 ± 0.099 | 2.65 ± 0.11 | 2.77 ± 0.11 | 2.73 ± 0.066
KKPSPQTIPIQIYGFEG [YGR119C/NUP57] | 2.61 ± 0.26 | 3.06 ± 0.22 | 2.49 ± 0.15 | 3.08 ± 0.17
KKRSHHGKASRQQYYSG [SNF6] | 3.05 ± 0.088 | 3.11 ± 0.062 | 2.92 ± 0.065 | 2.98 ± 0.079
KKSKIQLLDIAEFKKEN [LIN1] | 1.42 ± 0.1 | 2.29 ± 0.13 | 2.44 ± 0.16 | 2.99 ± 0.11
KKSKLISLYLLNLLSQN [RPN12] | 1.31 ± 0.057 | 1.97 ± 0.062 | 1.26 ± 0.094 | 1.84 ± 0.046
KKSRSNLSQENDNEGKH [YAR002W/NUP60] | 2.77 ± 0.058 | 3.12 ± 0.052 | 2.91 ± 0.049 | 3.11 ± 0.044
KKVSRRNARATRAAKIA [RPL13A] | 2.25 ± 0.085 | 2.9 ± 0.1 | 2.39 ± 0.077 | 2.77 ± 0.045
KKYLKKNQLRDWIRFVS [RPL22A] | 1.8 ± 0.06 | 1.68 ± 0.062 | 1.2 ± 0.14 | 1.12 ± 0.09
KLFVSKEHAPYTDELEE [FAS2] |  | 1.61 ± 0.12 | 1.56 ± 0.28 | 1.83 ± 0.15

Sequence | protein stability index (doa10∆) | protein stability index (pdr5∆) | protein stability index (san1∆) | protein stability index (ubr1∆)
KLHFKDTKPFLNKDSTN [NUT1] | 2.51 ± 0.098 | 2.23 ± 0.073 | 1.99 ± 0.071 | 2.6 ± 0.041
KLIIHRKNDNANDHDES [SMC3] |  | 1.73 ± 0.21 |  | 1.36 ± 0.11
KLIKFETRNEDDVVVLT [FAS1] | 3.32 ± 0.17 | 2.93 ± 0.13 | 3.07 ± 0.063 | 3.12 ± 0.16
KLITTYISLLKLQGLYE [YDL116W/NUP84] | 2.23 ± 0.059 | 1.82 ± 0.061 | 1.66 ± 0.072 | 1.72 ± 0.052
KLKYHDFLRKATAFNKT [RPL16A] | 1.16 ± 0.13 | 1.24 ± 0.14 |  | 1.22 ± 0.15
KLLATSTKIIMLLLNDS [SRB8] | 1.57 ± 0.065 | 1.46 ± 0.059 | 1.48 ± 0.16 | 1.23 ± 0.071
KLLGVDMQSSVDTGLQP [YLR018C/POM34] | 3.17 ± 0.077 | 3.12 ± 0.067 | 3.1 ± 0.062 | 3.14 ± 0.053
KLPLLNESLIPLINLAL [YML103C/NUP188] | 1.69 ± 0.061 | 2.16 ± 0.068 | 1.73 ± 0.079 | 1.98 ± 0.054
KLQLGQLYESGNPVNDA [COR1] | 3.03 ± 0.076 | 2.98 ± 0.091 | 3.17 ± 0.065 | 3.01 ± 0.077
KLRAARAKAMKFADGFL [RPS3] | 3.3 ± 0.17 | 3.03 ± 0.14 | 2.44 ± 0.29 | 3.16 ± 0.065
KLSKSATESIKNRRRIH [SMC1] |  |  |  | 2.62 ± 0.25
KLSQMILDKIFYGVLDQ [RPN6] | 2.83 ± 0.13 | 2.99 ± 0.12 | 2.92 ± 0.062 | 2.86 ± 0.11
KLSQYVQEMALGGPITK [FAS2] | 2.6 ± 0.083 | 2.74 ± 0.055 | 2.96 ± 0.049 | 2.53 ± 0.031
KLTAERANLRKYREGQV [POP1] | 2.91 ± 0.058 | 3.02 ± 0.07 | 2.8 ± 0.073 | 3.01 ± 0.055
KLTILQEGIEAIATTVI [RET1] | 2.79 ± 0.069 | 2.32 ± 0.06 | 2.51 ± 0.082 | 2.78 ± 0.037
KLVRDSFTSATERHIQV [PRE7] | 2.78 ± 0.075 | 2.9 ± 0.055 | 3.17 ± 0.055 | 2.37 ± 0.057
KLYTKELSVTGSAINHH [YMR129W/POM152] | 1.22 ± 0.12 | 1.35 ± 0.077 | 1.46 ± 0.23 | 1.49 ± 0.06
KMFQDIRLSKILEDDFA [CDC53] | 2.94 ± 0.062 | 3.04 ± 0.088 | 2.62 ± 0.072 | 2.93 ± 0.063
KMWFDVQLRYGDYDSHD [PRP8] | 1.78 ± 0.12 | 2.06 ± 0.15 |  | 3.06 ± 0.2
KNAAESSYMGKHWTEKS [PRP28] | 3.17 ± 0.12 | 3.24 ± 0.17 |  | 3.46 ± 0.11
KNAGLGFKTPKTAIEGS [RPS11A] | 3.01 ± 0.047 | 3.12 ± 0.055 | 3.11 ± 0.035 | 3.13 ± 0.041
KNDDNSCRNPEHTDVID [YIL149C/MLP2] | 3.03 ± 0.15 | 2.75 ± 0.099 | 2.98 ± 0.093 | 2.97 ± 0.086
KNDNGGKMNNEVSTSTS [SWI3] | 3.29 ± 0.08 | 3.14 ± 0.1 | 3.06 ± 0.053 | 2.65 ± 0.075
KNFSPTKRVEKPQLKFK [RRP6] | 2.33 ± 0.093 | 2.17 ± 0.1 | 2.39 ± 0.1 | 3.21 ± 0.075
KNGKIYLKHNSIAEEIP [RET1] | 2.97 ± 0.059 | 2.81 ± 0.05 | 2.61 ± 0.074 | 2.52 ± 0.037
